Experimental data from the supplement of paper PMC5998384.

How the values were obtained:
HeLa Kyoto [1] = assay: solubility in G1/S (NP-40 vs SDS abundance) (log2 ratio); higher = more soluble; conditions: cell cycle stage: G1/S
HeLa Kyoto [2] = assay: solubility change mitosis vs G1/S (difference of NP-40 vs SDS log2 ratios) (log2 ratio difference); higher = more soluble in mitosis
HeLa Kyoto [3] = assay: melting temperature (median over replicates), in situ; higher = more thermally stable
HeLa Kyoto [4] = assay: thermal stability score vs G1/S (z-score of summed log2 fold changes over temperatures); higher = more thermally stable than in G1/S
[5] = cell cycle stage: early G1 (4.5 h after nocodazole release)
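For melting temperature (median over replicates), in situ in this document: HeLa Kyoto cells synchronized by double thymidine or nocodazole block, proteins quantified by TMT10plex mass spectrometry, three independent biological replicates.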
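For solubility change mitosis vs G1/S (difference of NP-40 vs SDS log2 ratios) in this document: synchronized HeLa Kyoto cells (double thymidine block for G1/S, nocodazole release for mitosis), protein amounts in NP-40 versus SDS lysates quantified by mass spectrometry, three biological replicates.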
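For solubility in G1/S (NP-40 vs SDS abundance) in this document: HeLa Kyoto cells arrested at G1/S by double thymidine block, proteins quantified by TMT10plex mass spectrometry in mild NP-40 versus SDS extracts, three biological replicates.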
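For thermal stability score vs G1/S (z-score of summed log2 fold changes over temperatures) in this document: synchronized HeLa Kyoto cells, proteins quantified by TMT10plex mass spectrometry, three biological replicates, mitosis taken 0.5 h after nocodazole release, G1/S directly after double thymidine block.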

PCYT1A, sequence (chain, as listed by the source): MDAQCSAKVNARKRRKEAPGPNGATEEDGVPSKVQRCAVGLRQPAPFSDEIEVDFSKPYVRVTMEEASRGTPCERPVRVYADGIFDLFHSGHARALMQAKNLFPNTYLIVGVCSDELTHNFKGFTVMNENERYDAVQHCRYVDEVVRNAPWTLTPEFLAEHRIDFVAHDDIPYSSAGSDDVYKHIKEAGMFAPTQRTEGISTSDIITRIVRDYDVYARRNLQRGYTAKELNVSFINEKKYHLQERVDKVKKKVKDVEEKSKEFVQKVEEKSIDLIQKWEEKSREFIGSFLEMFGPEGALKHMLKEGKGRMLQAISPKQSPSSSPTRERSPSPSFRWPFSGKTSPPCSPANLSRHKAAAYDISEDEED
DENND4C, sequence (chain, as listed by the source): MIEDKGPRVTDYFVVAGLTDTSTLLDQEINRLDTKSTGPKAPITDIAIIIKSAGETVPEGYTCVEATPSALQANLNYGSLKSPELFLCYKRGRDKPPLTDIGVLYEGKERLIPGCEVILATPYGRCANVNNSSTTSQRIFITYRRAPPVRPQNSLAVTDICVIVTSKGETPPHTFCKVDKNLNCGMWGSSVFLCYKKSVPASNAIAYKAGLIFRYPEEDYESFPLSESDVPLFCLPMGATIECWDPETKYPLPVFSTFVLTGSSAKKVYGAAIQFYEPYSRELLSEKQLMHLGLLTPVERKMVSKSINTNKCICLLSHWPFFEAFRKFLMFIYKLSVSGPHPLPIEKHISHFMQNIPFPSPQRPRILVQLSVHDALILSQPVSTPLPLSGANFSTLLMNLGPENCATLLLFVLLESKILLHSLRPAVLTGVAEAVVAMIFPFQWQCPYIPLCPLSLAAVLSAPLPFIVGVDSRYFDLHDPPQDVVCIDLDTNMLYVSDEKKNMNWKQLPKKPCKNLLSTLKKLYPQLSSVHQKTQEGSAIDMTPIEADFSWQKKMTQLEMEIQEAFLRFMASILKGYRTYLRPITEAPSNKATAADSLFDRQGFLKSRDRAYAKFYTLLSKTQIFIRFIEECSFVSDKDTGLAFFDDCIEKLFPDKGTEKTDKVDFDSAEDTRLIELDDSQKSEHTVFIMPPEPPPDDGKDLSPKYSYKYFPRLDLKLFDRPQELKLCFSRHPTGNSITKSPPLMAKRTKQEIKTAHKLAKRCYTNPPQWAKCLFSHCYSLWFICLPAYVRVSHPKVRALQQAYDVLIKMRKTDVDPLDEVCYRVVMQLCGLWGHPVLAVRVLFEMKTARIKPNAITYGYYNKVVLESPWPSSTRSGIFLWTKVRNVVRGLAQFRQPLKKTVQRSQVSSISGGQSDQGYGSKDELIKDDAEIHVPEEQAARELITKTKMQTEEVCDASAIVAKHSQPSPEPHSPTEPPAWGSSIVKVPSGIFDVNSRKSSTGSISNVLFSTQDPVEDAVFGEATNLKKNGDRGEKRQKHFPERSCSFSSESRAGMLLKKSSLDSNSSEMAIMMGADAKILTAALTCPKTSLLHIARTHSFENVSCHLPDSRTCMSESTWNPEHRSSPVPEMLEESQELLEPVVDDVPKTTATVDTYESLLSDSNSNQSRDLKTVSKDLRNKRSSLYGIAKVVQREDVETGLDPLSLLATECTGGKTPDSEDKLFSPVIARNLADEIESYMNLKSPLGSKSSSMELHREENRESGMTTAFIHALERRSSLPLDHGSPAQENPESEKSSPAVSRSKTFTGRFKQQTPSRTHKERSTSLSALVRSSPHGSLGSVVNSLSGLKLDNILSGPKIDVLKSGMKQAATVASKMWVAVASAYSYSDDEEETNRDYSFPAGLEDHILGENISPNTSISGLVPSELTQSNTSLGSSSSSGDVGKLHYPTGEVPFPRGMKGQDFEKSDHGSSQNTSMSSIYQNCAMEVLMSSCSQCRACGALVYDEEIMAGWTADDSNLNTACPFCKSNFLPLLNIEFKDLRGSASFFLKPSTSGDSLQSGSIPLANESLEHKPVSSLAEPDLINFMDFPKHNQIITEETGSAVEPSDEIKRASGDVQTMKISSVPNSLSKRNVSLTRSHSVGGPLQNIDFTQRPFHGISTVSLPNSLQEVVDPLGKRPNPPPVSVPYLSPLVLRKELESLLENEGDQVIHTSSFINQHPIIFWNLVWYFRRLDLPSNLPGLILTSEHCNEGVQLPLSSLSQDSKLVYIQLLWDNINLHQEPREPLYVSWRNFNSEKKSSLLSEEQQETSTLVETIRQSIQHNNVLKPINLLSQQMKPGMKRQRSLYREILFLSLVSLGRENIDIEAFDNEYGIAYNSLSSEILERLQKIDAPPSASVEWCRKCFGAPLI

| Substance | solubility in G1/S (log2) (HeLa Kyoto [1]) | solubility change mitosis (log2) (HeLa Kyoto [2]) | melting temperature (HeLa Kyoto [3]; cell cycle stage: G1/S) | melting temperature (HeLa Kyoto [3]; cell cycle stage: mitosis) | thermal stability score (HeLa Kyoto [4]; [5]) | thermal stability score (HeLa Kyoto [4]; cell cycle stage: mitosis) |
| --- | --- | --- | --- | --- | --- | --- |
| MSINLTVDIYIYLLSNARSVCGKQRSKQLYFLFSPKHYWRISHISLQRGFHTNIIRCKWTKSEAHSCSKHCYSPSNHGLHIGILKLSTSAPKGLTKVNICMSRIKSTLNSVSKAVFGNQNEMISRLAQFKPSSQILRKVSDSGWLKQKNIKQAIKSLKKYSDKSAEKSPFPEEKSHIIDKEEDIGKRSLFHYTSSITTKFGDSFYFLSNHINSYFKRKEKMSQQKENEHFRDKSELEDKKVEEGKLRSPDPGILAYKPGSESVHTVDKPTSPSAIPDVLQVSTKQSIANFLSRPTEGVQALVGGYIGGLVPKLKYDSKSQSEEQEEPAKTDQAVSKDRNAEEKKRLSLQREKIIARVSIDNRTRALVQALRRTTDPKLCITRVEELTFHLLEFPEGKGVAVKERIIPYLLRLRQIKDETLQAAVREILALIGYVDPVKGRGIRILSIDGGGTRGVVALQTLRKLVELTQKPVHQLFDYICGVSTGAILAFMLGLFHMPLDECEELYRKLGSDVFSQNVIVGTVKMSWSHAFYDSQTWENILKDRMGSALMIETARNPTCPKVAAVSTIVNRGITPKAFVFRNYGHFPGINSHYLGGCQYKMWQAIRASSAAPGYFAEYALGNDLHQDGGLLLNNPSALAMHECKCLWPDVPLECIVSLGTGRYESDVRNTVTYTSLKTKLSNVINSATDTEEVHIMLDGLLPPDTYFRFNPVMCENIPLDESRNEKLDQLQLEGLKYIERNEQKMKKVAKILSQEKTTLQKINDWIKLKTDMYEGLPFFSKL [PNPLA8] | 0.117 | -0.0941 | 53.6 °C | 54 °C | -0.78 | -0.701 |
| MPSSPLRVAVVCSSNQNRSMEAHNILSKRGFSVRSFGTGTHVKLPGPAPDKPNVYDFKTTYDQMYNDLLRKDKELYTQNGILHMLDRNKRIKPRPERFQNCKDLFDLILTCEERVYDQVVEDLNSREQETCQPVHVVNVDIQDNHEEATLGAFLICELCQCIQHTEDMENEIDELLQEFEEKSGRTFLHTVCFY [SSU72] | 0.4 | -0.0234 | 48.1 °C | 49.4 °C | 0.263 | -0.182 |
| MATCIWLRSCGARRLGSTFPGCRLRPRAGGLVPASGPAPGPAQLRCYAGRLAGLSAALLRTDSFVGGRWLPAAATFPVQDPASGAALGMVADCGVREARAAVRAAYEAFCRWREVSAKERSSLLRKWYNLMIQNKDDLARIITAESGKPLKEAHGEILYSAFFLEWFSEEARRVYGDIIHTPAKDRRALVLKQPIGVAAVITPWNFPSAMITRKVGAALAAGCTVVVKPAEDTPFSALALAELASQAGIPSGVYNVIPCSRKNAKEVGEAICTDPLVSKISFTGSTTTGKILLHHAANSVKRVSMELGGLAPFIVFDSANVDQAVAGAMASKFRNTGQTCVCSNQFLVQRGIHDAFVKAFAEAMKKNLRVGNGFEEGTTQGPLINEKAVEKVEKQVNDAVSKGATVVTGGKRHQLGKNFFEPTLLCNVTQDMLCTHEETFGPLAPVIKFDTEEEAIAIANAADVGLAGYFYSQDPAQIWRVAEQLEVGMVGVNEGLISSVECPFGGVKQSGLGREGSKYGIDEYLELKYVCYGGL [ALDH5A1] | 0.125 | -0.0409 | 56.1 °C | 54.8 °C | 1.08 | 0.0757 |
| MAAKGAHGSYLKVESELERCRAEGHWDRMPELVRQLQTLSMPGGGGNRRGSPSAAFTFPDTDDFGKLLLAEALLEQCLKENHAKIKDSMPLLEKNEPKMSEAKNYLSSILNHGRLSPQYMCEAMLILGKLHYVEGSYRDAISMYARAGIDDMSMENKPLYQMRLLSEAFVIKGLSLERLPNSIASRFRLTEREEEVITCFERASWIAQVFLQELEKTTNNSTSRHLKGCHPLDYELTYFLEAALQSAYVKNLKKGNIVKGMRELREVLRTVETKATQNFKVMAAKHLAGVLLHSLSEECYWSPLSHPLPEFMGKEESSFATQALRKPHLYEGDNLYCPKDNIEEALLLLLISESMATRDVVLSRVPEQEEDRTVSLQNAAAIYDLLSITLGRRGQYVMLSECLERAMKFAFGEFHLWYQVALSMVACGKSAYAVSLLRECVKLRPSDPTVPLMAAKVCIGSLRWLEEAEHFAMMVISLGEEAGEFLPKGYLALGLTYSLQATDATLKSKQDELHRKALQTLERAQQLAPSDPQVILYVSLQLALVRQISSAMEQLQEALKVRKDDAHALHLLALLFSAQKHHQHALDVVNMAITEHPENFNLMFTKVKLEQVLKGPEEALVTCRQVLRLWQTLYSFSQLGGLEKDGSFGEGLTMKKQSGMHLTLPDAHDADSGSRRASSIAASRLEEAMSELTMPSSVLKQGPMQLWTTLEQIWLQAAELFMEQQHLKEAGFCIQEAAGLFPTSHSVLYMRGRLAEVKGNLEEAKQLYKEALTVNPDGVRIMHSLGLMLSRLGHKSLAQKVLRDAVERQSTCHEAWQGLGEVLQAQGQNEAAVDCFLTALELEASSPVLPFSIIPREL [TTC7A] | 0.161 | -0.168 | 51.2 °C |  | 0.0827 | -0.515 |
| MPGKLLWGDIMELEAPLEESESQKKERQKSDRRKSRHHYDSDEKSETRENGVTDDLDAPKAKKSKMKEKLNGDTEEGFNRLSDEFSKSHKSRRKDLPNGDIDEYEKKSKRVSSLDTSTHKSSDNKLEETLTREQKEGAFSNFPISEETIKLLKGRGVTYLFPIQVKTFGPVYEGKDLIAQARTGTGKTFSFAIPLIERLQRNQETIKKSRSPKVLVLAPTRELANQVAKDFKDITRKLSVACFYGGTSYQSQINHIRNGIDILVGTPGRIKDHLQSGRLDLSKLRHVVLDEVDQMLDLGFAEQVEDIIHESYKTDSEDNPQTLLFSATCPQWVYKVAKKYMKSRYEQVDLVGKMTQKAATTVEHLAIQCHWSQRPAVIGDVLQVYSGSEGRAIIFCETKKNVTEMAMNPHIKQNAQCLHGDIAQSQREITLKGFREGSFKVLVATNVAARGLDIPEVDLVIQSSPPQDVESYIHRSGRTGRAGRTGICICFYQPRERGQLRYVEQKAGITFKRVGVPSTMDLVKSKSMDAIRSLASVSYAAVDFFRPSAQRLIEEKGAVDALAAALAHISGASSFEPRSLITSDKGFVTMTLESLEEIQDVSCAWKELNRKLSSNAVSQITRMCLLKGNMGVCFDVPTTESERLQAEWHDSDWILSVPAKLPEIEEYYDGNTSSNSRQRSGWSSGRSGRSGRSGGRSGGRSGRQSRQGSRSGSRQDGRRRSGNRNRSRSGGHKRSFD [DDX50] | -1.4 | 0.879 |  | 50.4 °C | 1.27 | 2.08 |
| MAVTALAARTWLGVWGVRTMQARGFGSDQSENVDRGAGSIREAGGAFGKREQAEEERYFRAQSREQLAALKKHHEEEIVHHKKEIERLQKEIERHKQKIKMLKHDD [ATPIF1] | 0.903 | 0.408 | 56.8 °C | 56.9 °C | 3.16 | -2.08 |
| DENND4C | 0.0629 | -0.154 | 50.6 °C | 50.8 °C | 0.187 | 0.554 |
| PCYT1A | 0.341 | -0.0895 | 51.4 °C | 52.4 °C | 2.25 | 3.79 |
| MDAAEVEFLAEKELVTIIPNFSLDKIYLIGGDLGPFNPGLPVEVPLWLAINLKQRQKCRLLPPEWMDVEKLEKMRDHERKEETFTPMPSPYYMELTKLLLNHASDNIPKADEIRTLVKDMWDTRIAKLRVSADSFVRQQEAHAKLDNLTLMEINTSGTFLTQALNHMYKLRTNLQPLESTQSQDF [GINS2] | 0.24 | 0.34 | 50.9 °C | 52.4 °C | -1.69 | -2.97 |
| MSRPPPTGKMPGAPETAPGDGAGASRQRKLEALIRDPRSPINVESLLDGLNSLVLDLDFPALRKNKNIDNFLNRYEKIVKKIRGLQMKAEDYDVVKVIGRGAFGEVQLVRHKASQKVYAMKLLSKFEMIKRSDSAFFWEERDIMAFANSPWVVQLFYAFQDDRYLYMVMEYMPGGDLVNLMSNYDVPEKWAKFYTAEVVLALDAIHSMGLIHRDVKPDNMLLDKHGHLKLADFGTCMKMDETGMVHCDTAVGTPDYISPEVLKSQGGDGFYGRECDWWSVGVFLYEMLVGDTPFYADSLVGTYSKIMDHKNSLCFPEDAEISKHAKNLICAFLTDREVRLGRNGVEEIRQHPFFKNDQWHWDNIRETAAPVVPELSSDIDSSNFDDIEDDKGDVETFPIPKAFVGNQLPFIGFTYYRENLLLSDSPSCRETDSIQSRKNEESQEIQKKLYTLEEHLSNEMQAKEELEQKCKSVNTRLEKTAKELEEEITLRKSVESALRQLEREKALLQHKNAEYQRKADHEADKKRNLENDVNSLKDQLEDLKKRNQNSQISTEKVNQLQRQLDETNALLRTESDTAARLRKTQAESSKQIQQLESNNRDLQDKNCLLETAKLKLEKEFINLQSALESERRDRTHGSEIINDLQGRICGLEEDLKNGKILLAKVELEKRQLQERFTDLEKEKSNMEIDMTYQLKVIQQSLEQEEAEHKATKARLADKNKIYESIEEAKSEAMKEMEKKLLEERTLKQKVENLLLEAEKRCSLLDCDLKQSQQKINELLKQKDVLNEDVRNLTLKIEQETQKRCLTQNDLKMQTQQVNTLKMSEKQLKQENNHLMEMKMNLEKQNAELRKERQDADGQMKELQDQLEAEQYFSTLYKTQVRELKEECEEKTKLGKELQQKKQELQDERDSLAAQLEITLTKADSEQLARSIAEEQYSDLEKEKIMKELEIKEMMARHKQELTEKDATIASLEETNRTLTSDVANLANEKEELNNKLKDVQEQLSRLKDEEISAAAIKAQFEKQLLTERTLKTQAVNKLAEIMNRKEPVKRGNDTDVRRKEKENRKLHMELKSEREKLTQQMIKYQKELNEMQAQIAEESQIRIELQMTLDSKDSDIEQLRSQLQALHIGLDSSSIGSGPGDAEADDGFPESRLEGWLSLPVRNNTKKFGWVKKYVIVSSKKILFYDSEQDKEQSNPYMVLDIDKLFHVRPVTQTDVYRADAKEIPRIFQILYANEGESKKEQEFPVEPVGEKSNYICHKGHEFIPTLYHFPTNCEACMKPLWHMFKPPPALECRRCHIKCHKDHMDKKEEIIAPCKVYYDISTAKNLLLLANSTEEQQKWVSRLVKKIPKKPPAPDPFARSSPRTSMKIQQNQSIRRPSRQLAPNKPS [ROCK2] | 0.0267 | -0.132 | 49.8 °C | 49.4 °C | 0.406 | 1.46 |
| MGKKYKNIVLLKGLEVINDYHFRMVKSLLSNDLKLNLKMREEYDKIQIADLMEEKFRGDAGLGKLIKIFEDIPTLEDLAETLKKEKLKVKGPALSRKRKKEVDATSPAPSTSSTVKTEGAEATPGAQKRKKSTKEKAGPKGSKVSEEQTQPPSPAGAGMSTAMGRSPSPKTSLSAPPNSSSTENPKTVAKCQVTPRRNVLQKRPVIVKVLSTTKPFEYETPEMEKKIMFHATVATQTQFFHVKVLNTSLKEKFNGKKIIIISDYLEYDSLLEVNEESTVSEAGPNQTFEVPNKIINRAKETLKIDILHKQASGNIVYGVFMLHKKTVNQKTTIYEIQDDRGKMDVVGTGQCHNIPCEEGDKLQLFCFRLRKKNQMSKLISEMHSFIQIKKKTNPRNNDPKSMKLPQEQRQLPYPSEASTTFPESHLRTPQMPPTTPSSSFFTKKSEDTISKMNDFMRMQILKEGSHFPGPFMTSIGPAESHPHTPQMPPSTPSSSFLTTKSEDTISKMNDFMRMQILKEGSHFPGPFMTSIGPAESHPHTPQMPPSTPSSSFLTTLKPRLKTEPEEVSIEDSAQSDLKEVMVLNATESFVYEPKEQKKMFHATVATENEVFRVKVFNIDLKEKFTPKKIIAIANYVCRNGFLEVYPFTLVADVNADRNMEIPKGLIRSASVTPKINQLCSQTKGSFVNGVFEVHKKNVRGEFTYYEIQDNTGKMEVVVHGRLTTINCEEGDKLKLTCFELAPKSGNTGELRSVIHSHIKVIKTRKNKKDILNPDSSMETSPDFFF [IFI16] | -0.293 | 0.318 | 46.8 °C | 49.1 °C | 3.09 | 5.43 |
